Target: T1, Paeniclostridium sordellii lethal toxin TcsL, receptor binding domain (RBD) (Paeniclostridium sordellii, UniProt Q46342)
T1 sequence: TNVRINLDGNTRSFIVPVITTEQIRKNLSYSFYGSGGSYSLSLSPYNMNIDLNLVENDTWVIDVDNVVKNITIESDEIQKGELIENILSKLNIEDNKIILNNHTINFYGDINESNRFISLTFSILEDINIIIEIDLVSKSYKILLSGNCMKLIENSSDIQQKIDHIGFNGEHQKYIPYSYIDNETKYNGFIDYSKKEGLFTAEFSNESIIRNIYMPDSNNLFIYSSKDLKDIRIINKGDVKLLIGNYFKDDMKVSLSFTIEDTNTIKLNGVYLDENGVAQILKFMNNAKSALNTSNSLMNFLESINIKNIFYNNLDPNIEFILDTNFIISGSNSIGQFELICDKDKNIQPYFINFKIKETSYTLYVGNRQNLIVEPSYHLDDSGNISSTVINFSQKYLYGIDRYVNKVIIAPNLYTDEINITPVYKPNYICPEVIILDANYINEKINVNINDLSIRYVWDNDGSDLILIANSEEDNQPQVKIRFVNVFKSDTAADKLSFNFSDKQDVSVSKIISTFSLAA
Test: SPR

B1: B4, ProteinMPNN-optimized de novo designed TcsL-binding miniprotein (designed binder)
chain: MSGTEEIIKEIKKMKEKGEKASSIIDLLKKAGYSEIAKKAELAALKSENMTEAAAEKAIEELK
- Kd: 0.057 nM

From article doi:10.1101/2024.08.23.608890 (bioRxiv, 2024)
